Results on five substances are retold here after patent US11306156.

Test [1] concerns the target D3H44 Fab heavy chain S186K, C-terminal ABD2-His6 tag. Put plainly: LCCA: heavy chain co-expressed with two light chains, SPR detection of light chain tags; L1:L2 DNA 1:9, normalized to 1:1; competing light chain m11.
The target in test [2] is D3H44 Fab heavy chain L143E_K145T, C-terminal ABD2-His6 tag. The description is as above.
Test [3] has as its target D3H44 Fab heavy chain S186K, C-terminal ABD2-His6 tag. The test can be described thus: LCCA: heavy chain co-expressed with two light chains, SPR detection of light chain tags; L1:L2 DNA 1:3, normalized to 1:1; competing light chain m11.
Test [4] has as its target D3H44 Fab heavy chain L143E_K145T, C-terminal ABD2-His6 tag. Described as above.
Test [5] addresses D3H44 Fab heavy chain L143R, C-terminal ABD2-His6 tag. Put plainly: LCCA: heavy chain co-expressed with two light chains, SPR detection of light chain tags; L1:L2 DNA 1:3, normalized to 1:1; competing light chain m18.
Test [6] has as its target D3H44 Fab heavy chain L143E_K145T, C-terminal ABD2-His6 tag. Described as above.
The target of test [7] is D3H44 Fab heavy chain L143R, C-terminal ABD2-His6 tag. The test can be described thus: LCCA: heavy chain co-expressed with two light chains, SPR detection of light chain tags; L1:L2 DNA 1:9, normalized to 1:1; competing light chain m11.
For test [8], the target named is D3H44 Fab heavy chain L143E_K145T_S188L, C-terminal ABD2-His6 tag. The description is as above.
The target of test [9] is D3H44 Fab heavy chain L143R, C-terminal ABD2-His6 tag. The test can be described thus: LCCA: heavy chain co-expressed with two light chains, SPR detection of light chain tags; L1:L2 DNA 1:3, normalized to 1:1; competing light chain m11.
In test [10] the target is D3H44 Fab heavy chain L143E_K145T_S188L, C-terminal ABD2-His6 tag. The description is as above.
Test [11] addresses D3H44 Fab heavy chain Q179K, ABD2-His6 tagged. The test can be described thus: LCCA, SPR of light chain tags; L1:L2 DNA 1:9 normalized to 1:1; competing light chain m22.
Test [12] concerns the target D3H44 Fab heavy chain L143E_K145T_Q179E, ABD2-His6 tagged. The test is described as above.
For test [13], the target named is D3H44 Fab heavy chain S186R, ABD2-His6 tagged. The test can be described thus: LCCA, SPR of light chain tags; L1:L2 DNA 1:3 normalized to 1:1; competing light chain m19.
For test [14], the target named is D3H44 Fab heavy chain L143E_K145T_Q179E, ABD2-His6 tagged. Described as above.
Test [15] deals with D3H44 Fab heavy chain S186K, ABD2-His6 tagged. The test can be described thus: LCCA, SPR of light chain tags; L1:L2 DNA 1:9 normalized to 1:1; competing light chain m21.
Test [16] addresses D3H44 Fab heavy chain Q179R, ABD2-His6 tagged. The description is as above.
In test [17] the target is D3H44 Fab heavy chain L143E_K145T_Q179E, ABD2-His6 tagged. The description is as above.
For test [18], the target named is D3H44 Fab heavy chain S186K, ABD2-His6 tagged. Put plainly: LCCA, SPR of light chain tags; L1:L2 DNA 1:3 normalized to 1:1; competing light chain m24.
Test [19] deals with D3H44 Fab heavy chain L143E_K145T_Q179E, ABD2-His6 tagged. The test is described as above.
In test [20] the target is D3H44 Fab heavy chain S186K, ABD2-His6 tagged. The test can be described thus: LCCA, SPR of light chain tags; L1:L2 DNA 1:3 normalized to 1:1; competing light chain m21.
Test [21] concerns the target D3H44 Fab heavy chain Q179R, ABD2-His6 tagged. The test is described as above.
In test [22] the target is D3H44 Fab heavy chain L143E_K145T_Q179E, ABD2-His6 tagged. Described as above.
Test [23] concerns the target D3H44 Fab heavy chain L143R, ABD2-His6 tagged. The test can be described thus: LCCA, SPR of light chain tags; L1:L2 DNA 1:9 normalized to 1:1; competing light chain m20.
Test [24] has as its target D3H44 Fab heavy chain L143E_K145T_Q179E, ABD2-His6 tagged. The description is as above.
Test [25] concerns the target D3H44 Fab heavy chain S186K, ABD2-His6 tagged. Put plainly: LCCA, SPR of light chain tags; L1:L2 DNA 1:9 normalized to 1:1; competing light chain m24.
Test [26] has as its target D3H44 Fab heavy chain L143E_K145T_Q179E, ABD2-His6 tagged. Described as above.
The target of test [27] is D3H44 Fab heavy chain S186R, ABD2-His6 tagged. The test can be described thus: LCCA, SPR of light chain tags; L1:L2 DNA 1:9 normalized to 1:1; competing light chain m17.
Test [28] concerns the target D3H44 Fab heavy chain S186K, ABD2-His6 tagged. Described as above.
For test [29], the target named is D3H44 Fab heavy chain Q179R, ABD2-His6 tagged. The test is described as above.
The target in test [30] is D3H44 Fab heavy chain Q179K, ABD2-His6 tagged. The description is as above.
For test [31], the target named is D3H44 Fab heavy chain L143E_K145T_Q179E, ABD2-His6 tagged. The test is described as above.
Test [32] concerns the target D3H44 Fab heavy chain L143R, ABD2-His6 tagged. The test can be described thus: LCCA, SPR of light chain tags; L1:L2 DNA 1:3 normalized to 1:1; competing light chain m20.
Test [33] deals with D3H44 Fab heavy chain L143E_K145T_Q179E, ABD2-His6 tagged. The description is as above.
In test [34] the target is D3H44 Fab heavy chain Q179R, ABD2-His6 tagged. Put plainly: LCCA, SPR of light chain tags; L1:L2 DNA 1:3 normalized to 1:1; competing light chain m22.
Test [35] concerns the target D3H44 Fab heavy chain Q179K, ABD2-His6 tagged. The test is described as above.
The target in test [36] is D3H44 Fab heavy chain L143E_K145T_Q179E, ABD2-His6 tagged. The test is described as above.
Test [37] has as its target D3H44 Fab heavy chain S186R, ABD2-His6 tagged. Put plainly: LCCA, SPR of light chain tags; L1:L2 DNA 1:3 normalized to 1:1; competing light chain m17.
The target of test [38] is D3H44 Fab heavy chain S186K, ABD2-His6 tagged. The description is as above.
Test [39] concerns the target D3H44 Fab heavy chain Q179R, ABD2-His6 tagged. The description is as above.
Test [40] deals with D3H44 Fab heavy chain Q179K, ABD2-His6 tagged. Described as above.
Test [41] deals with D3H44 Fab heavy chain L143E_K145T_Q179E, ABD2-His6 tagged. The test is described as above.
Test [42] deals with tissue factor (TF) antigen (UniProt P13726). Put plainly: SPR, Fab captured by anti-penta-His, TF injected, 1:1 fit. (In general: In SPR one partner is held on a chip, and binding of the other changes the refractive index at the surface.)
Test [43] has the same target. Put plainly: SPR; log change of median KD against wild-type D3H44 Fab; estimated (*) from a Fab that differs only in the L chain tag.
Test [44] shares this target. Put plainly: SPR; log change of median KD against wild-type D3H44 Fab.
Test [45] shares this target. The test can be described thus: SPR, Fab captured by anti-penta-His, TF injected, 1:1 fit; estimated (*) from a Fab that differs only in the L chain tag.

Take “D3H44 light chain Q124E_T178E_T180E, N-terminal HA or FLAG tag”: the H2L2:H2L1 normalized median ratio amounted to 90% in [1] and 91% in [3]. Also, the H1L1:H1L2 normalized median ratio in [2] came out at 19%; in test [4] it was 18%.
With “D3H44 light chain Q124E_V133E_Q160M, N-terminal HA or FLAG tag”, the H2L2:H2L1 normalized median ratio in [5] is 88%. Besides, the H1L1:H1L2 normalized median ratio in [6] came out at 15%.
Take “D3H44 light chain Q124E_V133E_S176L, N-terminal HA or FLAG tag”: the H2L2:H2L1 normalized median ratio is 79% in test [7] and 94% in test [9]. The H1L1:H1L2 normalized median ratio was 14% in test [8] and 26% in test [10].
On to “D3H44 light chain Q124R_T178R, HA or FLAG tagged”, for which the H2L2:H2L1 normalized median ratio in [11] came to 11%; in test [13] it was 4%; in [15], 11%; in test [16], 10%; in [18] it was 6%; in test [20], 5%. The H2L2:H2L1 normalized median ratio in test [21] came out at 6%; in test [23], 11%; in test [25], 6%; in test [27] it was 13%; in [28] it was 10%; in [29], 14%. The H2L2:H2L1 normalized median ratio amounted to 16% in test [30]; 5% in [32]; 3% in test [34]; 4% in test [35]; 6% in test [37]; 2% in test [38]. Further, the H2L2:H2L1 normalized median ratio in [39] and in test [40] was 5% in each case. In addition, the H1L1:H1L2 normalized median ratio in [12] was found to be 85%; in test [14], 85%; in test [17], 92%; in test [19], 91%; in test [22], 92%; in test [24], 92%. The H1L1:H1L2 normalized median ratio was found to be 78% in [26]; 90% in test [31]; 93% in [33]; 86% in test [36]; 91% in test [41]. Also, the H1L1:H1L2 normalized median scalar value ln(r1/f1) in test [12] worked out at 1.77; in test [14], 1.75; in test [17] it was 2.45; in [19] it was 2.27; in test [22], 2.46; in test [24], 2.45. In addition, the H1L1:H1L2 normalized median scalar value ln(r1/f1) in test [26] was found to be 1.29; in test [31], 2.18; in test [33], 2.62; in [36], 1.83; in test [41] it was 2.29.
What is called Kd is the concentration at which binding is half-saturated. Turning to “H1L1 Fab heterodimer of LCCA sets 9589, 9587, 9588 and 9585 (D3H44 Fab, H1 L143E_K145T, L1 Q124R)”, the Kd in test [42] and in test [45] was 0.28 nM each time. The Change in median values of KD of h1l1 Fab heterodimer compared to wild type (-(log(KD design)-log(KD wt))) in test [43] and in test [44] was -0.25 log units throughout.
